Experimental data from PMC9076029.
Where two headings read alike, the source gives them in different places.

Tests used:
[1] = molecular target: SARS-CoV-2 spike protein receptor binding domain, wild-type (SARS-CoV-2) (UniProt P0DTC2); experiment: ITC
[2] = molecular target: SARS-CoV-2 spike protein receptor binding domain, wild-type (SARS-CoV-2) (UniProt P0DTC2); experiment: ITC; remark: listed apart in the source

Substance | Kd [1] [nM] | Kd [2] [nM]
CC12.1 single chain variable fragment (scFv) | 23.9 | 28
P2B-2F6 single chain variable fragment (scFv) | 81.4 | 
